Data from the Human Domainome abundance scans (Beltran et al. 2025).
± gives the uncertainty stated by the source.

B1: POU domain, class 3, transcription factor 4, residues 280 to 335; numbered along this chain, P49335 (parent)
chain: KKRTSIEVSVKGVLETHFLKCPKPAAQEISSLADSLQLEKEVVRVWFCNRRQKEKR

Variants of: B1
Assay: abundance fitness (aPCA) (normalised: wild type 0, dead -1); higher = more abundant; growth selection in yeast, the domain comes from the species named
Settings: Homo sapiens

In order of falling abundance fitness:
1. KKRTSIEVSVKGVLETHFLKCPKPAAQEISSLADSLQLEKEDVRVWFCNRRQKEKR  0.216 ± 0.41
2. KKRTSIEVSVKGVLETHFLKCPKPAAQEISSLADSLQLEKETVRVWFCNRRQKEKR  0.207 ± 0.18
3. KKRTSIEVSVKGVLETHFLKCPKPAAQEISSLADSLQLEKEEVRVWFCNRRQKEKR  0.185 ± 0.2
4. KKRTSIEVSVKGVLETHFLKCPKPAAQEISSLADSLQLEKDVVRVWFCNRRQKEKR  0.043 ± 0.2
5. KKRTSIEVSVKGVLETHFLKCPKPAAQEISSLADSLQLEKELVRVWFCNRRQKEKR  -0.122 ± 0.13
6. KKRTSIEVSVKGVLETHFLKCPKPAAQEISSLADSLQLEKNVVRVWFCNRRQKEKR  -0.189 ± 0.29
7. KKRTSIEVSVKGVLETHFLKCPKPAAQEISSLADSLQLEKEQVRVWFCNRRQKEKR  -0.254 ± 0.24
8. KKRTSIEVSVKGVLETHFLKCPKPAAQEISSLADSLQLEKEWVRVWFCNRRQKEKR  -0.291 ± 0.15
9. KKRTSIEVSVKGVLETHFLKCPKPAAQEISSLADSLQLEKEFVRVWFCNRRQKEKR  -0.318 ± 0.26
10. KKRTSIEVSVKGVLETHFLKCPKPAAQEISSLADSLQLEKSVVRVWFCNRRQKEKR  -0.368 ± 0.13
11. KKRTSIEVSVKGVLETHFLKCPKPAAQEISSLADSLQLEKEYVRVWFCNRRQKEKR  -0.396 ± 0.43
12. KKRTSIEVSVKGVLETHFLKCPKPAAQEISSLADSLQLEKEMVRVWFCNRRQKEKR  -0.401 ± 0.2
13. KKRTSIEVSVKGVLETHFLKCPKPAAQEISSLADSLQLEKESVRVWFCNRRQKEKR  -0.431 ± 0.17
14. KKRTSIEVSVKGVLETHFLKCPKPAAQEISSLADSLQLEKEVLRVWFCNRRQKEKR  -0.437 ± 0.15
15. KKRTSIEVSVKGVLETHFLKCPKPAAQEISSLADSLQLEKTVVRVWFCNRRQKEKR  -0.466 ± 0.21
16. KKRTSIEVSVKGVLETHFLKCPKPAAQEISSLADSLQLEKEIVRVWFCNRRQKEKR  -0.49 ± 0.32
17. KKRTSIEVSVKGVLETHFLKCPKPAAQEISSLADSLQLEKEVIRVWFCNRRQKEKR  -0.543 ± 0.2
18. KKRTSIEVSVKGVLETHFLKCPKPAAQEISSLADSLQLEKEVYRVWFCNRRQKEKR  -0.545 ± 0.23
19. KKRTSIEVSVKGVLETHFLKCPKPAAQEISSLADSLQLEKEAVRVWFCNRRQKEKR  -0.552 ± 0.22
20. KKRTSIEVSVKGVLETHFLKCPKPAAQEISSLADSLQLEKEVFRVWFCNRRQKEKR  -0.567 ± 0.28
21. KKRTSIEVSVKGVLETHFLKCPKPAAQEISSLADSLQLEKEKVRVWFCNRRQKEKR  -0.596 ± 0.35
22. KKRTSIEVSVKGVLETHFLKCPKPAAQEISSLADSLQLEKEVQRVWFCNRRQKEKR  -0.601 ± 0.3
23. KKRTSIEVSVKGVLETHFLKCPKPAAQEISSLADSLQLEKEVDRVWFCNRRQKEKR  -0.614 ± 0.28
24. KKRTSIEVSVKGVLETHFLKCPKPAAQEISSLADSLQLEKRVVRVWFCNRRQKEKR  -0.637 ± 0.14
25. KKRTSIEVSVKGVLETHFLKCPKPAAQEISSLADSLQLEKEGVRVWFCNRRQKEKR  -0.648 ± 0.17
26. KKRTSIEVSVKGVLETHFLKCPKPAAQEISSLADSLQLEKEVGRVWFCNRRQKEKR  -0.687 ± 0.17
27. KKRTSIEVSVKGVLETHFLKCPKPAAQEISSLADSLQLEKERVRVWFCNRRQKEKR  -0.689 ± 0.14
28. KKRTSIEVSVKGVLETHFLKCPKPAAQEISSLADSLQLEKEVARVWFCNRRQKEKR  -0.692 ± 0.19
29. KKRTSIEVSVKGVLETHFLKCPKPAAQEISSLADSLQLEKGVVRVWFCNRRQKEKR  -0.709 ± 0.14
30. KKRTSIEVSVKGVLETHFLKCPKPAAQEISSLADSLQLEKEVRRVWFCNRRQKEKR  -0.738 ± 0.15
31. KKRTSIEVSVKGVLETHFLKCPKPAAQEISSLADSLQLEKEVPRVWFCNRRQKEKR  -0.774 ± 0.23
32. KKRTSIEVSVKGVLETHFLKCPKPAAQEISSLADSLQLEKAVVRVWFCNRRQKEKR  -0.776 ± 0.19
33. KKRTSIEVSVKGVLETHFLKCPKPAAQEISSLADSLQLEKENVRVWFCNRRQKEKR  -0.799 ± 0.41
34. KKRTSIEVSVKGVLETHFLKCPKPAAQEISSLADSLQLEKEVERVWFCNRRQKEKR  -0.815 ± 0.33
35. KKRTSIEVSVKGVLETHFLKCPKPAAQEISSLADSLQLEKVVVRVWFCNRRQKEKR  -0.817 ± 0.2
36. KKRTSIEVSVKGVLETHFLKCPKPAAQEISSLADSLQLEKYVVRVWFCNRRQKEKR  -0.819 ± 0.4
37. KKRTSIEVSVKGVLETHFLKCPKPAAQEISSLADSLQLEKIVVRVWFCNRRQKEKR  -0.828 ± 0.31
38. KKRTSIEVSVKGVLETHFLKCPKPAAQEISSLADSLQLEKPVVRVWFCNRRQKEKR  -0.831 ± 0.25
39. KKRTSIEVSVKGVLETHFLKCPKPAAQEISSLADSLQLEKEVCRVWFCNRRQKEKR  -0.832 ± 0.27
40. KKRTSIEVSVKGVLETHFLKCPKPAAQEISSLADSLQLEKCVVRVWFCNRRQKEKR  -0.84 ± 0.23
41. KKRTSIEVSVKGVLETHFLKCPKPAAQEISSLADSLQLEKWVVRVWFCNRRQKEKR  -0.852 ± 0.2
42. KKRTSIEVSVKGVLETHFLKCPKPAAQEISSLADSLQLEKEVSRVWFCNRRQKEKR  -0.852 ± 0.17
43. KKRTSIEVSVKGVLETHFLKCPKPAAQEISSLADSLQLEKEPVRVWFCNRRQKEKR  -0.874 ± 0.28
44. KKRTSIEVSVKGVLETHFLKCPKPAAQEISSLADSLQLEKEVTRVWFCNRRQKEKR  -0.975 ± 0.2
45. KKRTSIEVSVKGVLETHFLKCPKPAAQEISSLADSLQLEKEVKRVWFCNRRQKEKR  -1.01 ± 0.36
46. KKRTSIEVSVKGVLETHFLKCPKPAAQEISSLADSLQLEKEVWRVWFCNRRQKEKR  -1.19 ± 0.38
47. KKRTSIEVSVKGVLETHFLKCPKPAAQEISSLADSLQLEKEVMRVWFCNRRQKEKR  -1.22 ± 0.47
